Assay results: EP2954933A1 (3B Pharmaceuticals GmbH, dated 2015)
*1 amine or outer side, *2 acyl side, *3 side chain or, on linkers, in order; H or OH if unused. [ ]: non-standard residue; d: D form. Lys(DOTA) = Lys with DOTA chelator on the side chain; Oic = O=C(O)[C@@H]1C[C@@H]2CCCC[C@@H]2N1; d2Nal = N[C@H](Cc1ccc2ccccc2c1)C(=O)O; Glutaryl = O=C(CCCC(=O)[*:2])[*:1]; αMeF = C[C@](N)(Cc1ccccc1)C(=O)O; Ttds = non-natural spacer; Orn = NCCC[C@H](N)C(=O)O; 1206 = not defined here; GABA = NCCCC(=O)O

Molecular target: T1, bradykinin B1 receptor (human) (UniProt P46663)
T1 sequence (looked up): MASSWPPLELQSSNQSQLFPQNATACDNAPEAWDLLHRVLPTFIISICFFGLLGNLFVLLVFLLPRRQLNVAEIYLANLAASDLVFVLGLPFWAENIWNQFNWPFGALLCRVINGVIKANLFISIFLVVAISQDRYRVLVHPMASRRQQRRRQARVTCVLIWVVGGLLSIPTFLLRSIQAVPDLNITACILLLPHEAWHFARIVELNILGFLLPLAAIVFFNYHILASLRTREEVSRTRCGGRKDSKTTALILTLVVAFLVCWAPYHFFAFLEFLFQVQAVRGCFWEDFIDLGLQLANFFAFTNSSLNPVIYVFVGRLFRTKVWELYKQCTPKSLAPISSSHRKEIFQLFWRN
Assay: radioligand displacement: 0.35 nM [3H]desArg10-KD on human B1R from CHO cells, compound at 100 nM

B1: 1206-Glutar-Ttds-Lys(DOTA)-Ttds-GABA-Lys-Arg-Pro-Hyp-Gly-Cha-Ser-Pro-Leu-OH (peptide)
peptide: KRPXGXSPL
modifications: position 4 = Hyp (hydroxyproline); position 6 = Cha (cyclohexylalanine); N-terminus of Lys1 acylated with 1206-Glutar-Ttds-Lys(DOTA)-Ttds-GABA- (1206 = non-peptide NTR1 antagonist moiety; DOTA on the Lys side chain); free C-terminal …
In the case of B1, the Inhibition [at 100 nM, %] is reported as 20%.

B2: 1206-Glutar-Ttds-Lys(DOTA)-Ttds-GABA-Orn-Arg-Oic-Pro-Gly-Amf-Ser-nal-Ile-OH (peptide)
peptide: {1206-Glutaryl-Ttds-Lys(DOTA)-Ttds-GABA}-[Orn]R[Oic]PG[αMeF]S[d2Nal]I-OH
modifications: reading uncertain; also: printed as 1206-Glutar-Ttds-Lys(DOTA)-Ttds-GABA-Orn-Arg-Oic-Pro-Gly-Amf-Ser-nal-Ile-OH
B2 was tested, and the Inhibition [at 100 nM, %] was 17%.
